Measurements as given in paper PMC5216119, “An allosteric conduit facilitates dynamic multisite substrate recognition by the SCF^Cdc4 ubiquitin ligase” (Nature Communications, 2017).
Where a chain is given by its changes, count along the chain named. Read-outs that look alike come from different tables or passages of the source. Square brackets hold non-standard residues; d marks the D form. Ends that are not written are not given here. Peptide text beside a SMILES is read from it. pT = C[C@@H](OP(=O)(O)O)[C@H](N)C(=O)O; pS = N[C@@H](COP(=O)(O)O)C(=O)O

What was measured:
Skp1-Cdc4 complex = Skp1-Cdc4 complex (Saccharomyces cerevisiae, UniProt P07834+P52286); test: Fluorescence polarization binding of fluorescein-labelled Ash1 peptides to Skp1-Cdc4; parameters: species or system yeast; details: 10 nM fluorescein-labelled peptide, increasing recombinant Skp1-Cdc4 complex; 10 mM HEPES pH 7.5, 40 mM NaCl, 0.1 mg ml^−1 BSA, 1 mM DTT; ex 485 / em 535 nm; read-out: Kd (μM) from fluorescence polarization
From the text: Figure 6 NMR titration of IM-labelled Cdc4^WD40 with Ash1 peptides. (a) Combined ^1H and ^13C chemical shifts of Cdc4^WD40 on binding of Ash1 peptides, with pT286 peptide in red, pT290 peptide in green, pS294 peptide in yellow, and the peptide phosphorylated on all three CPDs in blue. Assigned Ile and Met residues are labelled with residue number. Chemical shifts for the two bound states in titration with pT286 and triply phosphorylated peptides are reported on the same bars with stripes or without stripes. […] (f) Fluorescence polarization of the fluorescein-labelled Ash1 peptides (circle, pT286/pT290/pS294, square, pT286/pT290, triangle, pT290/pS294, inverted triangle doubly phosphorylated CycE peptide) in the presence of increasing concentrations of the recombinant Skp1-Cdc4 complex (mP, millipolarization unit). (g) Fluorescence polarization of the fluorescein-labelled Ash1 peptides (circle, pT286/pT290/pS294, square, pT286/pT290, triangle, pT290/pS294, inverted triangle, doubly phosphorylated CycE peptide) in the presence of increasing concentrations of the SCF-I2 inhibitor.
Fluorescence polarization assays containing 0.21 μM Skp1-Cdc4 complex and 10 nM fluorescently labelled cyclin E-derived or Ash1-derived phosphopeptides in 10 mM HEPES (pH 7.5), 40 mM NaCl, 0.1 mg ml^−1 BSA and 1 mM DTT in a final volume of 23.5 μl per well were performed on an Analyst HT plate reader (Molecular Devices Corp., Sunnyvale CA). Samples were excited at 485 nm and emission was read at 535 nm (ref. [26]).

[1] = target: Cdc4 (Saccharomyces cerevisiae) (UniProt P07834); details: cited from earlier work
[2] = target: Cdc4 (Saccharomyces cerevisiae) (UniProt P07834); details: cited from earlier work; remark: listed apart in the source
[3] = target: Cdc4 (Saccharomyces cerevisiae) (UniProt P07834); details: cited from earlier work; remark: listed apart in the source
[4] = target: Cdc4 (Saccharomyces cerevisiae) (UniProt P07834); details: cited from earlier work; remark: listed apart in the source
[5] = target: Cdc4 (Saccharomyces cerevisiae) (UniProt P07834); details: cited from earlier work; remark: listed apart in the source
[6] = target: Cdc4 (Saccharomyces cerevisiae) (UniProt P07834); details: cited from earlier work; remark: listed apart in the source
[7] = target: Cdc4 (Saccharomyces cerevisiae) (UniProt P07834); details: cited from earlier work; remark: listed apart in the source
[8] = target: Cdc4 (Saccharomyces cerevisiae) (UniProt P07834); details: cited from earlier work; remark: listed apart in the source
[9] = target: Cdc4-Skp1 (Saccharomyces cerevisiae) (UniProt P07834); test: intrinsic Trp fluorescence; details: cited from earlier work
[10] = target: fluorescein-labelled Ash1^18pT286/pT290 peptide (yeast); test: fluorescence polarisation; 10 nM fluorescein-labelled peptide with increasing concentrations of the recombinant Skp1-Cdc4 complex; 10 mM HEPES pH 7.5, 40 mM NaCl, 0.1 mg/ml BSA, 1 mM DTT
[11] = target: fluorescein-labelled Ash1^18pT286/pT290/pS294 peptide (yeast); test: as above
[12] = target: fluorescein-labelled Ash1^18pT290/pS294 peptide (yeast); test: as above
[13] = target: T1, Cdc4^WD40 (isolated WD40 domain of the yeast F-box protein Cdc4, residues 367-744), wild type (yeast, UniProt P07834 367-744); test: other fluorescence titration; intrinsic Trp fluorescence (excitation 298 nm, emission 366 nm); 0.5 μM Cdc4, ligand titrated; 50 mM Tris, 150 mM NaCl, 5 mM DTT, pH 7.5, 20 °C; 1:1 stoichiometry assumed; details: both partners purified
T1 construct: Cdc4, yeast F-box protein, WD40 domain, residues 367-744; For the NMR experiments the protein was U-[15N,2H], Ile-delta1-[13CH3], Met-epsilon-[13CH3] labelled (IM-labelled); also called wt Cdc4^WD40; Cdc4 WD40 domain; source: E. coli BL21(DE3) codonPlus, purified (Ni-NTA, Ulp protease, Ni-NTA, Superdex 200)
T1 sequence (looked up): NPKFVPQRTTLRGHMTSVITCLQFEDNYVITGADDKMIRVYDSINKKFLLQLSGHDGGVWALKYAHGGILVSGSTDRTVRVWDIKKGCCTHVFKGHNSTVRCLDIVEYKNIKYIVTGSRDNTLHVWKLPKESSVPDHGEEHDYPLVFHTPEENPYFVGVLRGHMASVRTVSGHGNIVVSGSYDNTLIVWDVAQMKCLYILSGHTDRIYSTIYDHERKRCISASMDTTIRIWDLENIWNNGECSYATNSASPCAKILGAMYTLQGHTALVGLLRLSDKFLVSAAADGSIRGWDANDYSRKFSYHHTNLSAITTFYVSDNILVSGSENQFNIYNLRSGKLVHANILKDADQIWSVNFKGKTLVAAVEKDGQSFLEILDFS

R664Q Cdc4^WD40 = target: T2, R664Q Cdc4^WD40 (yeast, UniProt P07834 367-744, R664Q); test: as above; details: both partners purified
T2 construct: Cdc4, yeast F-box protein, WD40 domain, residues 367-744, with Arg664Gln in the allosteric pocket; also called Arg664Gln Cdc4^WD40; mutant (Arg664Gln) Cdc4^WD40; source: E. coli, purified as the wild type (Ni-NTA, Ulp protease, Ni-NTA, Superdex 200)
T2 sequence (looked up): T1 sequence (looked up) with R298Q

Sequence of Skp1-Cdc4 complex (P07834 whole entry): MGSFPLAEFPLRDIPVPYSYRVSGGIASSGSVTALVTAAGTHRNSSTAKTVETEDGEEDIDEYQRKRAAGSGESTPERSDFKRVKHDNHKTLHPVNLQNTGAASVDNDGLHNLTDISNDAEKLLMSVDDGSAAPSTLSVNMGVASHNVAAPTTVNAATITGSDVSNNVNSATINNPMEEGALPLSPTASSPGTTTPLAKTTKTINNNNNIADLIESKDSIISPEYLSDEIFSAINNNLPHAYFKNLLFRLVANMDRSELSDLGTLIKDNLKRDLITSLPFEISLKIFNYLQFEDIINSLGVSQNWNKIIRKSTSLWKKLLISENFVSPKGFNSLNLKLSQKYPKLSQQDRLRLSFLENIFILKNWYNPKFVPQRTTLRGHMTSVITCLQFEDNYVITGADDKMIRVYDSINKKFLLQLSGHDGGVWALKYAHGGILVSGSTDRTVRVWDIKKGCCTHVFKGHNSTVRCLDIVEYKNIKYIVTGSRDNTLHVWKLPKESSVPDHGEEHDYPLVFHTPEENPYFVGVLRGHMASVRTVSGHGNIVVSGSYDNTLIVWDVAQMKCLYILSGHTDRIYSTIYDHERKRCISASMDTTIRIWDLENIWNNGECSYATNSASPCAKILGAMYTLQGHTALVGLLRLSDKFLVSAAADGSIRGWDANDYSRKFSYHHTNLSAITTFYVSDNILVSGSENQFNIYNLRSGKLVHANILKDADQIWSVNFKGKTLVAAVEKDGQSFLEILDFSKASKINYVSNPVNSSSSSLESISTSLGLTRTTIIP
Sequence of Skp1-Cdc4 complex (P52286 whole entry partner): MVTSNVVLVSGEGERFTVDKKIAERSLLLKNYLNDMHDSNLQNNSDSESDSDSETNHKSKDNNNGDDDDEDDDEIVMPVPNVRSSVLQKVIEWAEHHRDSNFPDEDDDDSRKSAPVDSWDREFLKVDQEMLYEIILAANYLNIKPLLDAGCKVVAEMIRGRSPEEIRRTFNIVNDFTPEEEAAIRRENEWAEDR
Sequence of Cdc4 (Saccharomyces cerevisiae) (P07834 whole entry): as the sequence (P07834 whole entry) above
Sequence of Cdc4-Skp1 (Saccharomyces cerevisiae) (P07834 whole entry, chain 1 of 2): as the sequence (P07834 whole entry) above
Sequence of Cdc4-Skp1 (Saccharomyces cerevisiae) (P52286 2-194, chain 2 of 2, further chain): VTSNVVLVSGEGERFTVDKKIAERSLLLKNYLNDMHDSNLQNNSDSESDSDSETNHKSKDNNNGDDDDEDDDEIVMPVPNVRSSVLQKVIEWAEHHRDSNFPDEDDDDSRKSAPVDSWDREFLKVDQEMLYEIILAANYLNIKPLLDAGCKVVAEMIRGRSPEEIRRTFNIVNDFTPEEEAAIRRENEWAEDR

## CC[C@H](C)[C@H](NC(=O)[C@H](CO)NC(=O)[C@H](Cc1c[nH]c2ccccc12)NC(=O)[C@H](C)N)C(=O)N[C@H](C(=O)N1CCC[C@H]1C(=O)N1CCC[C@H]1C(=O)N[C@H](C(=O)N[C@H](C(=O)N1CCC[C@H]1C(=O)N1CCC[C@H]1C(=O)N[C@@H](CCSC)C(=O)N[C@@H](COP(=O)(O)O)C(=O)N1CCC[C@H]1C(=O)N1CCC[C@H]1C(=O)N[C@H](C(=O)N[C@@H](CC(N)=O)C(=O)N[C@@H](CCCNC(=N)N)C(=O)O)[C@@H](C)O)[C@@H](C)OP(=O)(O)O)C(C)C)[C@@H](C)O [AWSITPPVpTPPMpSPPTNR] (H-AWSITPPV[pT]PPM[pS]PPTNR-OH)
Skp1-Cdc4 complex
  Kd: 0.082 µM

## CC[C@H](C)[C@H](NC(=O)[C@H](CO)NC(=O)[C@H](Cc1c[nH]c2ccccc12)NC(=O)[C@H](C)N)C(=O)N[C@H](C(=O)N1CCC[C@H]1C(=O)N1CCC[C@H]1C(=O)N[C@H](C(=O)N[C@H](C(=O)N1CCC[C@H]1C(=O)N1CCC[C@H]1C(=O)N[C@@H](CCSC)C(=O)N[C@@H](CO)C(=O)N1CCC[C@H]1C(=O)N1CCC[C@H]1C(=O)N[C@H](C(=O)N[C@@H](CC(N)=O)C(=O)N[C@@H](CCCNC(=N)N)C(=O)O)[C@@H](C)O)[C@@H](C)OP(=O)(O)O)C(C)C)[C@@H](C)OP(=O)(O)O [AWSIpTPPVpTPPMSPPTNR] (H-AWSI[pT]PPV[pT]PPMSPPTNR-OH)
Skp1-Cdc4 complex
  Kd: 0.069 µM

## CC[C@H](C)[C@H](NC(=O)[C@H](CO)NC(=O)[C@H](Cc1c[nH]c2ccccc12)NC(=O)[C@H](C)N)C(=O)N[C@H](C(=O)N1CCC[C@H]1C(=O)N1CCC[C@H]1C(=O)N[C@H](C(=O)N[C@H](C(=O)N1CCC[C@H]1C(=O)N1CCC[C@H]1C(=O)N[C@@H](CCSC)C(=O)N[C@@H](COP(=O)(O)O)C(=O)N1CCC[C@H]1C(=O)N1CCC[C@H]1C(=O)N[C@H](C(=O)N[C@@H](CC(N)=O)C(=O)N[C@@H](CCCNC(=N)N)C(=O)O)[C@@H](C)O)[C@@H](C)OP(=O)(O)O)C(C)C)[C@@H](C)OP(=O)(O)O [AWSIpTPPVpTPPMpSPPTNR] (H-AWSI[pT]PPV[pT]PPM[pS]PPTNR-OH)
Skp1-Cdc4 complex
  Kd: 0.046 µM

## Ash1 pS294 peptide (from UniProt P34233)
[1]
  Kd: 6500 nM

## Ash1 pSer294 phosphopeptide 283-299 (from UniProt P34233)
[2]
  Kd: 6500 nM

## Ash1 pT286 peptide (from UniProt P34233)
[3]
  Kd: 900 nM

## Ash1 pT290 peptide (from UniProt P34233)
[4]
  Kd: 4100 nM

## Ash1 pThr286 phosphopeptide 283-299 (from UniProt P34233)
[5]
  Kd: 900 nM

## Ash1 pThr290 phosphopeptide 283-299 (from UniProt P34233)
[6]
  Kd: 4100 nM

## Ash1 triphosphorylated peptide 283-299 (from UniProt P34233)
[7]
  Kd: 70 nM

## Sic1 (from UniProt P38634)
[8]
  Kd: 1000 nM

## pSic1 1-90 (from UniProt P38634)
[9]
  Kd: 600 nM

## pSic1 (from UniProt P38634)
[9]
  Kd: 600 nM

## recombinant Skp1-Cdc4 complex (from UniProt P07834 1-779; P52286 1-194)
[10]
  Kd: 69 nM
[11]
  Kd: 46 nM
[12]
  Kd: 82 nM

B1: Sic1^20pS80 phosphopeptide (peptide)
chain: GMTSPFNGLTSPQR[pS]PFPKS
[13]
  Ka: 110000 M⁻¹
  Kd: 9130 nM
R664Q Cdc4^WD40
  Ka: 104000 M⁻¹
  Kd: 9580 nM

B2: Sic1^20pS69/pS80 phosphopeptide (peptide)
chain: GMT[pS]PFNGLTSPQR[pS]PFPKS
[13]
  Ka: 142000 M⁻¹
  Kd: 7060 nM
R664Q Cdc4^WD40
  Ka: 267000 M⁻¹
  Kd: 3740 nM

B3: Sic1^20pS69 phosphopeptide (peptide)
chain: GMT[pS]PFNGLTSPQRSPFPKS
[13]
  Ka: 97600 M⁻¹
  Kd: 10300 nM
R664Q Cdc4^WD40
  Ka: 51400 M⁻¹
  Kd: 19500 nM
